Laboratory results taken from US20220119534A1 (DRAGONFLY THERAPEUTICS, published 2022).
Where “and” joins values, the source holds several entries; their conditions need not be identical. Equal values may be shown once. Read-outs that look alike come from different tables or passages of the source.

Tests used:
[1] = target: T1, De-sialylated human CLEC12A (human, UniProt Q5QGZ9 65-265, treated with neuraminidase (terminal sialic acids removed)); test: SPR, two-state fit
T1 construct: Same recombinant antigen as m2 after neuraminidase; also called De-sialylated CLEC12A
T1 sequence: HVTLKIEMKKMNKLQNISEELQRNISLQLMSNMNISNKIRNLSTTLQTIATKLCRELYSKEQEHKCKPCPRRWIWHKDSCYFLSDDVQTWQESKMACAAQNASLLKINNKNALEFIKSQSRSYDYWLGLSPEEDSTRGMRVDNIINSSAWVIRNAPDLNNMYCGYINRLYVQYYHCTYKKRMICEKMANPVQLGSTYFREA

[2] = target: T2, De-glycosylated human CLEC12A (human, UniProt Q5QGZ9 65-265, treated with PNGaseF (N-linked glycans removed)); test: SPR, two-state fit
T2 construct: Same recombinant antigen as m2 after PNGaseF; also called De-glycosylated CLEC12A
T2 sequence: T1 sequence

[3] = target: T1, De-sialylated human CLEC12A; test: SPR, two-state fit (kd1)
[4] = target: T2, De-glycosylated human CLEC12A; test: SPR, two-state fit (kd1)
[5] = target: T3, mFc-hNKG2D (recombinant mFc-tagged human NKG2D dimer) (human, UniProt P26718 73-216); test: SPR; after pH 8, 40C, 2 wks (n = 2)
T3 construct: extracellular domain; Made in house; not shown: mouse Fc tag
T3 sequence (looked up): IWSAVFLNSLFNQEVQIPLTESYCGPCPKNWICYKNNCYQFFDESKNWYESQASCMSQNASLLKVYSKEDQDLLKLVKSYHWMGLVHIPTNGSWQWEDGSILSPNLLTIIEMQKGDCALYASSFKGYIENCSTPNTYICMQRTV

Human CD16b (FcγRIIIb) = target: T4, Human CD16b (FcγRIIIb) (human, UniProt O75015 17-200, limits assumed, biotinylated); test: SPR 25C, biotinylated CD16b captured
T4 construct: Bought recombinant receptor; also called hFcγRIIIb; CD16b (FcγR3b)

[6] = target: T5, Human CLEC12A-His (recombinant, K244 WT) (human, UniProt Q5QGZ9 65-265); test: SPR, two-state fit (ka1); control sample
T5 construct: Made in house (Dragonfly Tx); also called hCLEC12A; hCLEC12A-His; not shown: His tag
T5 sequence: T1 sequence

[7] = target: T5, Human CLEC12A-His (recombinant, K244 WT); test: SPR, two-state fit (ka1); control sample; remark: listed apart in the source

T4 sequence (O75015 17-200 limits assumed): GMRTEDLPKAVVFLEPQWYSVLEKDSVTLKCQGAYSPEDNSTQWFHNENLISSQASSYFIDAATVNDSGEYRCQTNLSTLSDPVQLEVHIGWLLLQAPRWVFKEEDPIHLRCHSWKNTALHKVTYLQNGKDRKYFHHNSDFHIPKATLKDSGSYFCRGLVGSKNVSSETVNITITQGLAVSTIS

B1: AB0089 TriNKET (bispecific antibody, human IgG1, kappa)
chain: QLQLQESGPGLVKPSETLSLTCTVSGFSLTNYGLHWIRQPPGKCLEWIGVIWVGGATDYNPSLKSRVTISVDTSKNQFSLKLSSVQAADTAVYYCAKGDYGDTLDYWGQGTLVTVSSGGGGSGGGGSGGGGSGGGGSDIQMTQSPSSLSASVGDRVTITCHASQNINFWLSWYQQKPGKAPKLLIYEASNLHTGVPSRFSGSGSGTDFTLTISSLQPEDFATYYCQQSHSYPLTFGCGTKLEIKGSDKTHTCPPCPAPELLGGPSVFLFPPKPKDTLMISRTPEVTCVVVDVSHEDPEVKFNWYVDGVEVHNAKTKPREEQYNSTYRVVSVLTVLHQDWLNGKEYKCKVSNKALPAPIEKTISKAKGQPREPRVYTLPPCRDELTKNQVSLTCLVKGFYPSDIAVEWESNGQPENNYKTTPPVLVSDGSFTLYSKLTVDKSRWQQGNVFSCSVMHEALHNHYTQKSLSLSPG
heavy: EVQLVESGGGLVKPGGSLRLSCAASGFTFSSYSMNWVRQAPGKGLEWVSSISSSSSYIYYADSVKGRFTISRDNAKNSLYLQMNSLRAEDTAVYYCARGAPIGAAAGWFDPWGQGTLVTVSSASTKGPSVFPLAPSSKSTSGGTAALGCLVKDYFPEPVTVSWNSGALTSGVHTFPAVLQSSGLYSLSSVVTVPSSSLGTQTYICNVNHKPSNTKVDKKVEPKSCDKTHTCPPCPAPELLGGPSVFLFPPKPKDTLMISRTPEVTCVVVDVSHEDPEVKFNWYVDGVEVHNAKTKPREEQYNSTYRVVSVLTVLHQDWLNGKEYKCKVSNKALPAPIEKTISKAKGQPREPQVCTLPPSRDELTENQVSLTCLVKGFYPSDIAVEWESNGQPENNYKTTPPVLDSDGSFFLYSWLTVDKSRWQQGNVFSCSVMHEALHNHYTQKSLSLSPG
light: DIQMTQSPSSVSASVGDRVTITCRASQGISSWLAWYQQKPGKAPKLLIYAASSLQSGVPSRFSGSGSGTDFTLTISSLQPEDFATYYCQQGVSFPRTFGGGTKVEIKRTVAAPSVFIFPPSDEQLKSGTASVVCLLNNFYPREAKVQWKVDNALQSGNSQESVTEQDSKDSTYSLSSTLTLSKADYEKHKVYACEVTHQGLSSPVTKSFNRGEC
notes: F3' format heterodimer of three chains; human IgG1 Fc with EW-RVT and Y349C/S354C mutations; also called AB0089 Lot AB0089-002; CLEC12A TriNKET AB0089
- Kd [1]: 0.00035 µM
- Kd [2]: 0.09 nM
- koff [3]: 0.0329 s⁻¹
- koff [4]: 0.00633 s⁻¹
- Kd [5]: 0.983 µM
- koff [5]: 0.127 s⁻¹
- kon [5]: 130000 M⁻¹ s⁻¹
- Kd (Human CD16b (FcγRIIIb)): 10.3 µM and 8.8 µM and 7.4 µM
- kon [6]: 1.01e+07 M⁻¹ s⁻¹
- kon [7]: 1.01e+07 M⁻¹ s⁻¹
